Measurements as given in publication PMC9214244, “Multivalent Interaction of Beta-Catenin With its Intrinsically Disordered Binding Partner Adenomatous Polyposis Coli” (Frontiers in Molecular Biosciences, 2022).
pKd: −log10 of the molar value.

How the values were obtained:
Experiment in all cases: fluorescence polarisation; fluorescence anisotropy; β-catenin titrated into 10 nM fluorescein-labelled APC construct; PBS, 1 mM DTT; 15°C; adjusted anisotropy fitted to a Hill equation
[1] = molecular target: APCabc with the flexible linker (FL) inserted between residues 1,478 and 1,479, fluorescein-labelled at Cys 1501 (UniProt P25054)
[2] = molecular target: APCabc with the flexible linker (FL) inserted between residues 1,500 and 1,501, fluorescein-labelled at Cys 1501 (UniProt P25054)
[3] = molecular target: APCabc with the rigid linker (RL) inserted between residues 1,500 and 1,501, fluorescein-labelled at Cys 1501 (UniProt P25054)
[4] = molecular target: APCbc, APC R3 subdomains b and c (residues 1,483–1,533), fluorescein-labelled at Cys 1501 (UniProt P25054)
[5] = molecular target: pAPCabc D1486S, fluorescein-labelled at Cys 1501 (UniProt P25054)
[6] = molecular target: pAPCabc with the flexible linker (FL) inserted between residues 1,478 and 1,479, fluorescein-labelled at Cys 1501 (UniProt P25054)
[7] = molecular target: pAPCabc with the polyproline linker (PP) inserted between residues 1,500 and 1,501, fluorescein-labelled at Cys 1501 (UniProt P25054)
[8] = molecular target: pAPCabc with the rigid linker (RL) inserted between residues 1,500 and 1,501, fluorescein-labelled at Cys 1501 (UniProt P25054)
[9] = molecular target: pAPCabc, full-length R3 domain APCabc containing all five phosphomimetics, fluorescein-labelled at Cys 1501 (UniProt P25054)
[10] = molecular target: pAPCc, phospho domain c of APC R3 in the phosphomimetic form, fluorescein-labelled at Cys 1501 (UniProt P25054)

Sequence of armadillo (ARM) repeat domain of human β-catenin (residues 134–671) (P35222 other isoform, or with tags, fused parts or gaps): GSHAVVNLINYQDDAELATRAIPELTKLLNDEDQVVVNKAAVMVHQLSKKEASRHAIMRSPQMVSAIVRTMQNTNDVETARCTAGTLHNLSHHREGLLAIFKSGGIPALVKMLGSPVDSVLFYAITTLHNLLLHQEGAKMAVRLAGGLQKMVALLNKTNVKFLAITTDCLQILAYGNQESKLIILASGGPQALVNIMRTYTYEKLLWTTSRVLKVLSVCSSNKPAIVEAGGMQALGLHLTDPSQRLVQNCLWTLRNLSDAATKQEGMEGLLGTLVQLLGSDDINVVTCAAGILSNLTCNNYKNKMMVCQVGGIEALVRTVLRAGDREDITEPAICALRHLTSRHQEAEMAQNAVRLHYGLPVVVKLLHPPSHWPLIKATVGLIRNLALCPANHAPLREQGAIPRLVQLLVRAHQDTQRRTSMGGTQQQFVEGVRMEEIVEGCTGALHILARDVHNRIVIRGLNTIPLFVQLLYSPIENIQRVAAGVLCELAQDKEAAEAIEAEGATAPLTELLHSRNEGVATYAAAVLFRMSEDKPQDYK

armadillo (ARM) repeat domain of human β-catenin (residues 134–671) (from UniProt P35222 134-671) (domain or fragment)
pKd [1]: 7.67
pKd [2]: 7.55
pKd [3]: 7.51
pKd [4]: 6.71
pKd [5]: 7.67
pKd [6]: 7.73
pKd [7]: 7.79
pKd [8]: 7.97
pKd [9]: 8.28
pKd [10]: 6.80
